Laboratory results taken from patent US20240409624A1.

What was measured:
[1] = target: 0N4 R tau K298 mutated to alanine (human) (UniProt P10636); assay: flow cytometry on fixed, permeabilised Expi293 cells expressing the mutant, 10 µg/ml VR7082
[2] = target: 0N4 R tau V300 mutated to alanine (human) (UniProt P10636); assay: as above
Chain of 0N4 R tau V300 mutated to alanine (human) (P10636 other isoform, or with tags, fused parts or gaps, change not shown): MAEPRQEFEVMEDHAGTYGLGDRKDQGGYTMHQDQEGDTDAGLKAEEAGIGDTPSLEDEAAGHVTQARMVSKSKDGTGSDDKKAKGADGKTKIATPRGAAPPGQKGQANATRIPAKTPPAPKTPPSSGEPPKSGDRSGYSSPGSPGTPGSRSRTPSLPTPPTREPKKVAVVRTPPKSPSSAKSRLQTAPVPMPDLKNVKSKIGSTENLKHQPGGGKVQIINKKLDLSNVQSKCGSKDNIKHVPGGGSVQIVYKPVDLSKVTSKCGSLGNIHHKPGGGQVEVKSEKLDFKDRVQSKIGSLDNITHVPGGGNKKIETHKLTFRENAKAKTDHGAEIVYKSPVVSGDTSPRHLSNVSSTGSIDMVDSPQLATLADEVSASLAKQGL

Chain of 0N4 R tau K298 mutated to alanine (human) (P10636 other isoform, or with tags, fused parts or gaps, change not shown): as above

decrease of binding relative to 0N4 R tau [1]: 50%
decrease of binding relative to 0N4 R tau [2]: 50%
B1: VR7082 rabbit IgG (antibody, V domains shown)
VH: QSVEESGGRLVTPGTPLTLTCTVSGIDLSNYAMIWVRQAPGEGLEYIGIISSTGNTFYATWAKGRFTISKTSTTVDLKITSPTAEDTATYFCARDTNSDSHYGWEAFNIWGPGTLVTVSS
VL: AVVLTQTPASVEAAVGGTVSINCQASEDIESYLAWYQQKPGQRPKLLIYRASTLASGVSSRFKGSGSGTEYTLTISGVECADAATYYCQEGYSIHVDNVFGGGTEVVVK
